Measurements reported in patent publication US20220162314A1 (ASHER BIOTHERAPEUTICS, published 2022).
Where a chain is given by its changes, count along the chain named.

B1: xhCD8v6 (antibody, human IgG1, V domains shown)
VH: EVQLVESGGGAVRPGGSLRLSCAASGFTFDDYGMSWVRQAPGKGLEWVSDINWSGEITAYADSVKGRFTISRDNAKNSLYLQMNSLRAEDTAVYYCARSNSYRWDDALDIWGQGTMVTVSS
VL: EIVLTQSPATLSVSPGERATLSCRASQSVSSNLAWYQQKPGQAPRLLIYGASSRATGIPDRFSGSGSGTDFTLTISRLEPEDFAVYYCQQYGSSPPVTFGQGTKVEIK
notes: also called xCD8v6
B2: xhCD8v10 (antibody, human IgG1, V domains shown)
VH: EVQLVESGGGLVQPGGSLRLSCAASGFTFSSYAMSWVRQAPGKGLEWVSDITYAGGSTAYADSVKGRFTISRDNAKNSLYLQMNSLRAEDTAVYYCARSNAYAWDDALDIWGQGTMVTVSS
VL: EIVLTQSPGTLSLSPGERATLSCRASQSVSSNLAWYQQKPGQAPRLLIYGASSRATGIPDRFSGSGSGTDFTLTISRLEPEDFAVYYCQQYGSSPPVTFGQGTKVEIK
notes: Improved version based on xhCD8v6
B3: xhCD8v11 (antibody, human IgG1, V domains shown)
VH: B2 VH with M116L
VL: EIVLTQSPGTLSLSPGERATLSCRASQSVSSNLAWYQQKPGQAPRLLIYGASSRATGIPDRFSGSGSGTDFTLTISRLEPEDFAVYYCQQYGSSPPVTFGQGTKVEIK
notes: as for B2
B4: xhCD8v15 (antibody, human IgG1, V domains shown)
VH: B2 VH with T52S, M116L
VL: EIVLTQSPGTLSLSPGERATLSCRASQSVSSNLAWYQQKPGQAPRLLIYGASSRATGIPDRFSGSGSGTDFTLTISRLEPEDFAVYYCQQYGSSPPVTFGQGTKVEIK
notes: as for B2
B5: xhCD8v14 (antibody, human IgG1, V domains shown)
VH: B2 VH with T52S
VL: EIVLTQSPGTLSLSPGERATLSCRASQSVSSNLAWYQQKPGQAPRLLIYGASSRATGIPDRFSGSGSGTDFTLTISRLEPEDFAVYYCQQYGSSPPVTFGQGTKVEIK
notes: as for B2
B6: xhCD8v7 (antibody, human IgG1, V domains shown)
VH: EVQLVESGGGLVQPGRSLRLSCAASGFTFDDYAMHWVRQAPGKGLEWVAVISYDGSNKYYADSVKGRFTISRDNSKNTLYLQMNSLRAEDTAVYYCAKDRIGWYDYDAFDIWGQGTMVTVSS
VL: EIVLTQSPATLSVTPGEGATLSCRASHSVGSNLAWYQQKPGQAPRLLIYDASNRATGIPARFSGSGSGTDFTLTISSLEPEDLAVYYCQQRSNWPPTFGQGTRLEIK
B7: xhCD8v1 (antibody, V domains shown)
VH: QVHLQQSGPELVKPGASVKMSCKTSGYTFTKYTMHWVKQGHEESLEWIGHFNPNNDETKYNQKFTGKATLTVDKSSTTAYMELRSLTSDDSALYYCARDGLGLRLFADWGQGTLITVSA
VL: DIQMTQSPASLSASVGETVTITCGASENIYGALNWYQRKQGKSPQLLIFGATNLADGVSSRFSGSGSDRQYSLKISSLHPDDVATYYCQNILDTPWTFGGGTKLEIK
notes: Mouse monoclonal antibody against CD8b; also called mouse monoclonal antibody xhCD8v1; xCD8v1
B8: xhCD8v8 (antibody, human IgG1, V domains shown)
VH: QVQLQQSGAELVRPGSSVKISCKASGYAFSSYWMNWVKQRPGQGLEWIGQIYPGDGDTNYNGKFKGKATLTADKSSSTAYMQLSSLTSEDSAVYFCARSGAAFSSYYAMDYWGQGTSVTVSS
VL: DIQMTQSPASLSVSVGETVTITCRASENIYSNLAWYQQKQGKSPQLLVYAATNLADGVPSRFSGSGSGTQYSLKINSLQSEDFGSYYCQHFWGTPWTFGGGTKLEIK
notes: also called xCD8v8
B9: xhCD8v13 (antibody, human IgG1, V domains shown)
VH: QVQLVQSGAEVKKPGSSVKVSCKASGGTFSSYAISWVRQAPGQGLEWMGGIIPGYATANYAQKFQGRVTITADESTSTAYMELSSLRSEDTAVYYCARDAAGIRLFADWGQGTLVTVSS
VL: DIQMTQSPSSLSASVGDRVTITCRASQEIYGALNWYQQKPGKAPKLLIYGATNLQSGVPSRFSGSGSGTDFTLTISSLQPEDFATYYCQSTYDAPWTFGGGTKVEIK
notes: Improved version based on xhCD8v2
B10: xhCD8v2 (antibody, human IgG1, V domains shown)
VH: B9 VH with G27Y, T28R, S30H, S31N, Y32F, Y55H, T57K, A100G, A101L
VL: B9 VL with S90D, T91I
B11: xhCD8v5 (antibody, human IgG1, V domains shown)
VH: B9 VH with G27S, T28G, S30R, S31G, Y32H, Y55H, T57K, A100G, A101L
VL: B9 VL with E28K, S90N, A94T
B12: xhCD8v12 (antibody, human IgG1, V domains shown)
VH: B9 VH
VL: B9 VL with E28S, T52S, D93T
notes: as for B9
B13: xhCD8v9 (antibody, human IgG1, V domains shown)
VH: B9 VH with Y55A
VL: B9 VL
notes: as for B9
B14: xhCD8v4 (antibody, human IgG1, V domains shown)
VH: B9 VH with G27Y, S30T, S31K, Y55H, T57K, A100G, A101L
VL: B9 VL with E28K, S90N, A94T
B15: xhCD8v3 (antibody, human IgG1, V domains shown)
VH: B9 VH with G27S, T28R, S30Y, S31K, Y32F, Y55H, T57K, A100G, A101L
VL: B9 VL with S90D, T91I

Experiments:
[1] = molecular target: T1, Recombinant CD8b (Sino biological) (human, UniProt P10966 22-170, limits assumed); experiment: ELISA: antigen coated on the plate, antibody titrated, anti-IgG (Fc)-HRP and TMB, A450
T1 construct: also called CD8b alone
Procedure: (§1) Binding specificity of the antibodies was determined by ELISA. […] of recombinant CD8ab, CD8a (Sino biological), CD8b (Sino biological) and ovalbumin (Sigma) or Erb2 (human epidermal growth factor receptor 2) (Sino biological) in PBS were coated onto the maxisorp plate overnight at 4° C. Ovalbumin or Erb2 was used as negative control. Plate was then blocked with casein blocking solution (Thermo Scientific) for 1 hr at room temperature. After blocking, plate was washed with wash buffer (PBS/0.05% Tween-20). Next, dilution of antibody from 30 nM to 0.0009 nM in PBS/0.5% BSA/0.05% Tween-20 was added onto the plate and incubated for 1-2 hr at room temperature. After incubation, plate was washed, and incubated with anti-human IgG (Fc specific)-HRP conjugate or anti-mouse IgG (Fc specific)-HRP conjugate (Jackson Immunoresearch) in PBS/0.5% BSA/0.05% Tween-20 for 1 hr. Binding was detected by adding TMB substrate (SeraCare) to the plate, followed by stopping solution of 0.1M HCl. Binding absorbance was read using GloMax® Discover Microplate Reader (Promega).

[2] = molecular target: T2, Recombinant human CD8ab protein (extracellular domains of CD8a and CD8b with leucine zippers and tags) (human, UniProt P01732 22-182; P10966 22-170); experiment: as above
T2 construct: extracellular domain; Secreted from HEK293 cells; also called recombinant CD8ab; soluble CD8ab antigen; not shown: acidic leucine zipper; 8x Histidine tag; basic leucine zipper; Strep-tag II
Procedure: as §1

[3] = molecular target: T3, Recombinant CD8a (Sino biological) (human, UniProt P01732 22-182); experiment: as above
T3 construct: also called CD8a alone
Procedure: as §1

[4] = molecular target: T4, CD8aa on human CD8+ NK cells (CD3-CD56+CD8a+ cells of hPBMCs) (human, UniProt P01732 22-235); experiment: flow cytometry on human PBMCs, CD8+ NK cells (CD3-CD56+CD8a+), anti-human Fc MFI
T4 construct: whole, on cells; also called CD8aa+ NK cells
Procedure: (§2) Binding of CD8ab antibodies to T cells (FIG. 4) and NK cells (FIG. 5) in hPBMCs was detected by staining with anti-human Fc antibody conjugated to APC. Anti-hFc was used to measure the binding of CD8 antibodies containing hFc. Mean fluorescence intensity (MFI) of staining with anti-hFc is used to denote binding. Binding of anti-hFc was determined in CD3+CD8a+CD8b+ cells (CD8+ T cells) and CD3-CD56+CD8a+ cells (CD8+NK cells).
(§3) The binding of CD8ab antibodies on cells was determined by flow cytometry. Freshly isolated PBMCs were incubated with CD8ab antibodies for 2 hours at 4° C. Cells were then stained with antibodies against surface markers CD3 (UCHT1), CD4 (RPA-T4), CD8a (SK1), CD56 (HCD56), and anti-human Fc antibody (HP6017). Anti-human Fc antibody was used to measure the binding of CD8ab antibodies containing hFc. Stained cells were washed and analyzed by flow cytometry and mean fluorescence intensity (MFI) of staining with anti-hFc was used to denote binding.

[5] = molecular target: T2, Recombinant human CD8ab protein …; experiment: SPR (Biacore T200, 37 C), antibody captured by anti-human IgG Fc, soluble CD8ab as analyte, 1:1 model
Procedure: (§4) Recombinant human CD8ab protein was generated. […] Antibodies were first captured on an anti-hJgG-Fc CM5 or CM4 surface prepared using the Human Antibody Capture Kit (Cytiva). […] Dissociation was monitored for 5-10 minutes, and the anti-hJgG-Fc surface was regenerated with 3M MgCl2 before recapturing mAb in each subsequent cycle. Binding data were analyzed by Biacore T200 Evaluation Software version 3.2 using a 1:1 binding model.

[6] = molecular target: T5, CD8 on human CD8+ T cells (CD3+CD8a+CD8b+ cells of hPBMCs) (human, UniProt P01732 22-235; P10966 22-210); experiment: flow cytometry on human PBMCs, CD8+ T cells (CD3+CD8a+CD8b+), anti-human Fc MFI
T5 construct: whole, on cells; also called CD8ab+ T cells
Procedure: as §2, §3

[7] = molecular target: T2, Recombinant human CD8ab protein …; experiment: SPR as in Example 1 (antibody captured, soluble CD8ab as analyte)
Procedure: as §4

[8] = molecular target: T5, CD8 on human CD8+ T cells …; experiment: flow cytometry, CD8+ T cells, anti-human Fc MFI
Procedure: as §3

[9] = molecular target: T2, Recombinant human CD8ab protein …; experiment: SPR as in Example 1 (antibody captured, soluble CD8ab as analyte), steady state fit
Procedure: as §4

[10] = molecular target: T3, Recombinant CD8a (Sino biological); experiment: ELISA, coated recombinant CD8a, antibody 30 nM to 0.0009 nM
Procedure: as §1

[11] = molecular target: T1, Recombinant CD8b (Sino biological); experiment: ELISA, coated recombinant CD8b
Procedure: as §1

T3 sequence (P01732 22-182 limits assumed): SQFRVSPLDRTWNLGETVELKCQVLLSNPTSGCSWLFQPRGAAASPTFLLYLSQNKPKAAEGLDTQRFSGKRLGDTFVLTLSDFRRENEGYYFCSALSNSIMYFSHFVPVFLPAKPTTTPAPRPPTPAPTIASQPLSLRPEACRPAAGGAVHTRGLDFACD
T2 sequence (P01732 22-182, chain 1 of 2): as the sequence (P01732 22-182 limits assumed) above
T2 sequence (P10966 22-170, chain 2 of 2): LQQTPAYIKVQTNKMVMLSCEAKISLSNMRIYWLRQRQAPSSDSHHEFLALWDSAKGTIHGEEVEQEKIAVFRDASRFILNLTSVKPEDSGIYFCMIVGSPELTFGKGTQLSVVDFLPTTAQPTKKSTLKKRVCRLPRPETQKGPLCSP
T4 sequence (P01732 22-235): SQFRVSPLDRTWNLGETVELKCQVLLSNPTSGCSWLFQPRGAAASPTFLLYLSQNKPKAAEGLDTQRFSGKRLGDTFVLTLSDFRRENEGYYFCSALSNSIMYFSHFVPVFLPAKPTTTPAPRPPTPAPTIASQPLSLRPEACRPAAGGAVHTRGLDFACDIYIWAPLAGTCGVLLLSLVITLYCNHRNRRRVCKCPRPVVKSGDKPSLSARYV
T5 sequence (P01732 22-235, chain 1 of 2): as the sequence (P01732 22-235) above
T5 sequence (P10966 22-210, chain 2 of 2): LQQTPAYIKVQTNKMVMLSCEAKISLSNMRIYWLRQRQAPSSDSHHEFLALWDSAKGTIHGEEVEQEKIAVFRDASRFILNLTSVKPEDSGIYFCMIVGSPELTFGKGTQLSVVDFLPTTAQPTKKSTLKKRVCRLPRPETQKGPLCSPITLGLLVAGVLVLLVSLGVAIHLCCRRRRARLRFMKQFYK
T1 sequence (P10966 22-170 limits assumed): as the sequence (P10966 22-170, chain 2 of 2) above

Binder | EC50 (read off the curve) [2] [nM] | binding result [3] | Kd [5] [nM] | koff [5] [s⁻¹] | kon [5] [M⁻¹ s⁻¹] | Kd [7] [nM] | koff [7] [s⁻¹] | kon [7] [M⁻¹ s⁻¹] | binding result [10] | binding result [11] | other results
B1 | ~0.07 | no binding (tested: 30 nM) | 0.35 | 0.000571 | 1.62e+06 |  |  |  |  |  | binding result [1]: no binding (tested: 30 nM); binding result [4]: no binding (tested: 100 nM); EC50 (read off the curve) [6]: ~0.3 nM
B2 |  |  |  |  |  | 36.4 | 0.00386 | 106000 |  |  | 
B3 |  |  |  |  |  | 37.8 | 0.00361 | 95500 |  |  | 
B4 |  |  |  |  |  | 94.3 | 0.0175 | 186000 |  |  | 
B5 |  |  |  |  |  | 52.9 | 0.00855 | 162000 |  |  | 
B6 | ~0.09 | no binding (tested: 30 nM) | 1.08 | 0.000922 | 855000 |  |  |  |  |  | binding result [1]: no binding (tested: 30 nM); binding result [4]: no binding (tested: 100 nM); EC50 (read off the curve) [6]: ~0.05 nM
B7 | ~0.05 | no binding (tested: 30 nM) | 19.8 | 0.0183 | 922000 |  |  |  |  |  | EC50 (read off the curve) [1]: ~0.09 nM; binding result [4]: no binding (tested: 100 nM); EC50 (read off the curve) [6]: ~0.3 nM; EC50 (read off the curve) [8]: ~0.3 nM
B8 |  |  |  |  |  |  |  |  |  |  | Kd [9]: 236 nM
B9 |  |  |  |  |  | 81.8 | 0.0301 | 368000 | no binding (tested: 30 nM) | binds | 
B10 | ~0.03 | no binding (tested: 30 nM) | 41.6 | 0.02 | 483000 |  |  |  |  |  | EC50 (read off the curve) [1]: ~0.06 nM
B11 |  |  | 117 | 0.0419 | 357000 |  |  |  | no binding (tested: 30 nM) | binds | 
B12 | ~0.02 | no binding (tested: 30 nM) |  |  |  | 105 | 0.0271 | 259000 |  |  | EC50 (read off the curve) [1]: ~0.05 nM
B13 |  |  |  |  |  | 121 | 0.0273 | 225000 | no binding (tested: 30 nM) | binds | 
B14 |  |  | 137 | 0.0493 | 360000 |  |  |  | no binding (tested: 30 nM) | binds | 
B15 |  |  | 72.3 | 0.0379 | 524000 |  |  |  | no binding (tested: 30 nM) | binds | 
